Literature values as cited in PMC4557399.

What was measured:
[1] = molecular target: F1-ATP synthase beta subunit (UniProt P06576); assay: surface plasmon resonance
[2] = molecular target: F1-ATP synthase beta subunit (Bos taurus) (UniProt P00829); assay: bovine retinal endothelial cell binding
Chain of F1-ATP synthase beta subunit (Bos taurus) (P00829 47-528): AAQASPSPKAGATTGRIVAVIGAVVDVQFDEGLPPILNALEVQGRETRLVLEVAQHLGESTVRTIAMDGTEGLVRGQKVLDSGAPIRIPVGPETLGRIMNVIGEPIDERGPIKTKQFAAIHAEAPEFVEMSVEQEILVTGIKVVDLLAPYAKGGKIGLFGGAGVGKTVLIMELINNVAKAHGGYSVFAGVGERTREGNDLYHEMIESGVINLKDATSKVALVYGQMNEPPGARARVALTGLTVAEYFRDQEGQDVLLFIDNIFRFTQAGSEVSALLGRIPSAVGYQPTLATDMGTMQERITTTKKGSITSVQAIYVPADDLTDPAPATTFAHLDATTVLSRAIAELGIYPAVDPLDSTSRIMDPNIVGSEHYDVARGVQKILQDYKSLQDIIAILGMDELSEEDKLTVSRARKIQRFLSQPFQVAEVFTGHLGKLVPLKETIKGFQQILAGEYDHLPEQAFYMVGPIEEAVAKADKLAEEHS

Chain of PEDF (P36955 20-418): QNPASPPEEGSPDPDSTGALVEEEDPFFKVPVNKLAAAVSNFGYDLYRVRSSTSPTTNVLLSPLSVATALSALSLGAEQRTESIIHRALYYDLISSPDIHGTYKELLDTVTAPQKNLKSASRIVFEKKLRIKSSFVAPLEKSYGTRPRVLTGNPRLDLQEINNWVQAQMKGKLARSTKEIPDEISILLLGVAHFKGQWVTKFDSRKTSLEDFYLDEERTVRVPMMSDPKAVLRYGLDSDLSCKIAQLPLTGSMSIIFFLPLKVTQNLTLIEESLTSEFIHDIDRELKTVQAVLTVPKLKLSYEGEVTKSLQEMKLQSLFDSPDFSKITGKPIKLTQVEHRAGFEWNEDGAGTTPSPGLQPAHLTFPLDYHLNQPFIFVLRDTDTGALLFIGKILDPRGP
Chain of F1-ATP synthase beta subunit (P06576 48-529): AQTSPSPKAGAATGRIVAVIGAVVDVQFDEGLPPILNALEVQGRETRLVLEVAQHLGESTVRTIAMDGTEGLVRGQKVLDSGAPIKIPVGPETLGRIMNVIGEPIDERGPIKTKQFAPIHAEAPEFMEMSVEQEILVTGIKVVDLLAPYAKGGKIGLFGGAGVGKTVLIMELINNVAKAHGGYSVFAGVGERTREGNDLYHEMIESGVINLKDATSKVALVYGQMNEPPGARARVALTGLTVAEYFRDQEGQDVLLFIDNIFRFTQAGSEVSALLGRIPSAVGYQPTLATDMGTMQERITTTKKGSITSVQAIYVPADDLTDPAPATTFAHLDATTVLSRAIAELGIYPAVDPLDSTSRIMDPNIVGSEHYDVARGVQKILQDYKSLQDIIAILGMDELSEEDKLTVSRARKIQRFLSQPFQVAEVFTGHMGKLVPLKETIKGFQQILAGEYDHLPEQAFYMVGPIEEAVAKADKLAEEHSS

Kd [1]: 1.51 nM
Kd [2]: 4 nM
Substance: PEDF (from UniProt P36955)
